Laboratory results: US20200354425A1 (DONG-A ST CO., LTD., published 2020)
Numbering of substitutions follows the chain as printed. Like-named read-outs stand apart in the source and are kept apart here. *1 amine or outer side, *2 acyl side, *3 side chain or, on linkers, in order; H or OH if unused. Bridges are numbered along the chain shown (N, C = ends). Where no end group is shown, it is not given here. Side-chain parts run from the residue outwards. [ ]: non-standard residue; d: D form. The star is where a group is joined. γGlu = O=C(O)[C@H](CCC(=O)[*:2])N[*:1]; Stearoyl = CCCCCCCCCCCCCCCCCC(=O)*; AEEA = NCCOCCOCC(=O)O; Aib = CC(C)(N)C(=O)O

B1: Compound 38 (peptide)
peptide: H-H[Aib]QGTFTSDK([AEEA-AEEA-γGlu-Stearoyl])SKYLDDRRAKDFVQWLMNTK-OH
modifications: bridge 16-20; not fully specified (bridges); printed as H-HAibQGTFTSDZSKYLDDRRAKDFVQWLMNTK-OH
B2: Compound 36 (peptide)
peptide: HXQGTFTSDXSKYLDERRAKDFVQWLMNTK
modifications: not fully specified; Aib at position 2; Z at position 10 = Lys([(2-(2-(2-aminoethoxy)ethoxy)acetoyl)2]-[gamma glutamicacid]-[octadecanoyl]); a ring formed between E and K (positions 16 and 20) via leucine cross-link
B3: Compound 37 (peptide)
peptide: H-H[Aib]QGTFTSDK([AEEA-AEEA-γGlu-Stearoyl])SKYLDDRRAKDFVQWLMNTK-OH
modifications: bridge 16-20; not fully specified (bridges); printed as H-HAibQGTFTSDZSKYLDDRRAKDFVQWLMNTK-OH
B4: Compound 42 (peptide)
peptide: B2 peptide with E16X, K20Q
modifications: not fully specified; Aib at positions 2 and 16; Z at position 10 = Lys([(2-(2-(2-aminoethoxy)ethoxy)acetoyl)2]-[gammaglutamicacid]-[15-carboxypeptadecanoyl]) (so in the source)
B5: Compound 17 (peptide)
peptide: B2 peptide with E16X, K20Q
modifications: Aib at positions 2 and 16; Z at position 10 = Lys([(2-(2-(2-aminoethoxy)ethoxy)acetoyl)]-[gamma glutamicacid]-[octadecanoyl])
B6: Compound 30 (peptide)
peptide: B2 peptide with K20E
modifications: Aib at position 2; Z at position 10 = Lys([(2-(2-(2-aminoethoxy)ethoxy)acetoyl)2]-[gamma glutamicacid]-[octadecanoyl]); a ring formed between E and E (positions 16 and 20) via 1,2-ethylenediamino cross-link
B7: Compound 43 (peptide)
peptide: B2 peptide with E16X, K20Q
modifications: Aib at positions 2 and 16; Z at position 10 = Lys([(2-(2-(2-aminoethoxy)ethoxy)acetoyl)2]-[gammaglutamicacid]-[17-carboxyheptadecanoyl])
B8: Compound 35 (peptide)
peptide: B2 peptide
modifications: not fully specified; Aib at position 2; Z at position 10 = Lys([(2-(2-(2-aminoethoxy)ethoxy)acetoyl)2]-[gamma glutamicacid]-[octadecanoyl]); a ring formed between E and K (positions 16 and 20) via glycine cross-link
B9: Compound 10 (peptide)
peptide: B2 peptide with E16X, K20Q
modifications: Aib at positions 2 and 16; Z at position 10 = Lys([(2-(2-(2-aminoethoxy)ethoxy)acetoyl)3]-[gamma glutamicacid]-[octadecanoyl])
B10: Compound 33 (peptide)
peptide: B2 peptide
modifications: Aib at position 2; Z at position 10 = Lys([(2-(2-(2-aminoethoxy)ethoxy)acetoyl)2]-[gamma glutamicacid]-[octadecanoyl]); a ring formed between E and K (positions 16 and 20) via 1-aminocyclohexan-4-carbonyl cross-link
B11: Compound 11 (peptide)
peptide: B2 peptide with E16X, K20Q
modifications: Aib at positions 2 and 16; Z at position 10 = Lys([Gly-Gly-Ser-Gly-Ser-Gly]-[gamma glutamic acid]-[octadecanoyl])
B12: Compound 20 (peptide)
peptide: B2 peptide
modifications: Aib at position 2; Z at position 10 = Lys([(2-(2-(2-aminoethoxy)ethoxy)acetoyl)3]-[gamma glutamicacid]-[octadecanoyl]); lactam ring formed between E and K (positions 16 and 20)
B13: Compound 44 (peptide)
peptide: B2 peptide with E16X, K20Q
modifications: not fully specified; Aib at positions 2 and 16; Z at position 10 = Lys([(2-(2-(2-aminoethoxy)ethoxy)acetoyl)2]-[gammaglutamicacid]-[19-carboxypeptadecanoyl]) (so in the source)
B14: Compound 47 (peptide)
peptide: H-H[Aib]QGTFTSDYSKYLDEKRAKEFVQWLMNTKC-OH
modifications: lactam 16-20
SMILES: CSCC[C@H](NC(=O)[C@H](CC(C)C)NC(=O)[C@H](Cc1c[nH]c2ccccc12)NC(=O)[C@H](CCC(N)=O)NC(=O)[C@@H](NC(=O)[C@H](Cc1ccccc1)NC(=O)[C@H](CCC(=O)O)NC(=O)[C@@H]1CCCCNC(=O)CC[C@H](NC(=O)[C@H](CC(=O)O)NC(=O)[C@H](CC(C)C)NC(=O)[C@H](Cc2ccc(O)cc2)NC(=O)[C@H](CCCCN)NC(=O)[C@H](CO)NC(=O)[C@H](Cc2ccc(O)cc2)NC(=O)[C@H](CC(=O)O)NC(=O)[C@H](CO)NC(=O)[C@@H](NC(=O)[C@H](Cc2ccccc2)NC(=O)[C@@H](NC(=O)CNC(=O)[C@H](CCC(N)=O)NC(=O)C(C)(C)NC(=O)[C@@H](N)Cc2c[nH]cn2)[C@@H](C)O)[C@@H](C)O)C(=O)N[C@@H](CCCCN)C(=O)N[C@@H](CCCNC(=N)N)C(=O)N[C@@H](C)C(=O)N1)C(C)C)C(=O)N[C@@H](CC(N)=O)C(=O)N[C@H](C(=O)N[C@@H](CCCCN)C(=O)N[C@@H](CS)C(=O)O)[C@@H](C)O
B15: Compound 19 (peptide)
peptide: B2 peptide
modifications: Aib at position 2; Z at position 10 = Lys([(2-(2-(2-aminoethoxy)ethoxy)acetoyl)2]-[gamma glutamicacid]-[octadecanoyl]); lactam ring formed between E and K (positions 16 and 20); C-terminal amide (-NH2)
B16: Compound 29 (peptide)
peptide: B2 peptide with K20E
modifications: Aib at position 2; Z at position 10 = Lys([(2-(2-(2-aminoethoxy)ethoxy)acetoyl)2]-[gamma glutamicacid]-[octadecanoyl]); a ring formed between E and E (positions 16 and 20) via 1,4-phenylenediamino cross-link
B17: Compound 7 (peptide)
peptide: HXQGTFTSDXSKYLDXRRAQDFVQWLMNTKRNRNNIA
modifications: Aib at positions 2 and 16; Z at position 10 = Lys([(2-(2-(2-aminoethoxy)ethoxy)acetoyl)2]-[gamma glutamicacid]-[octadecanoyl])
B18: Compound 4 (peptide)
peptide: B2 peptide with X2S, E16S, K20Q
modifications: Z at position 10 = Lys([(2-(2-(2-aminoethoxy)ethoxy)acetoyl)2]-[gamma glutamicacid]-[octadecanoyl]); C-terminal amide (-NH2)
B19: Compound 14 (peptide)
peptide: B2 peptide
modifications: Aib at position 2; Z at position 10 = Lys([(2-(2-(2-aminoethoxy)ethoxy)acetoyl)2]-[gamma glutamicacid]-[octadecanoyl]); lactam ring formed between E and K (positions 16 and 20)
B20: Compound 6 (peptide)
peptide: B2 peptide with E16X, K20Q
modifications: Aib at positions 2 and 16; Z at position 10 = Lys([(2-(2-(2-aminoethoxy)ethoxy)acetoyl)2]-[gamma glutamicacid]-[octadecanoyl]); C-terminal amide (-NH2)
B21: Compound 23 (peptide)
peptide: B2 peptide with K20E
modifications: Aib at position 2; Z at position 10 = Lys([(2-(2-(2-aminoethoxy)ethoxy)acetoyl)2]-[gamma glutamicacid]-[octadecanoyl]); a ring formed between E and E (positions 16 and 20) via 1,4-piperazinyl cross-link
B22: Compound 3 (peptide)
peptide: B2 peptide with E16X, K20Q
modifications: Aib at positions 2 and 16; Z at position 10 = Lys([(2-(2-(2-aminoethoxy)ethoxy)acetoyl)2]-[gamma glutamicacid]-[octadecanoyl])
B23: Compound 34 (peptide)
peptide: B2 peptide
modifications: not fully specified; Aib at position 2; Z at position 10 = Lys([(2-(2-(2-aminoethoxy)ethoxy)acetoyl)2]-[gamma glutamicacid]-[octadecanoyl]); a ring formed between E and K (positions 16 and 20) via 4-aminobenzoyl cross-link
B24: Compound 25 (peptide)
peptide: B2 peptide
modifications: Aib at position 2; Z at position 10 = Lys([(2-(2-(2-aminoethoxy)ethoxy)acetoyl)4]-[gamma glutamicacid]-[octadecanoyl]); lactam ring formed between E and K (positions 16 and 20)

What was measured:
[1] = biological target: T1, Human glucagon receptor (human, UniProt P47871)
[2] = biological target: T2, Human GLP-1 receptor (human, UniProt P43220)
[3] = biological target: T1, Human glucagon receptor; assay: cell-based or functional assay
[4] = biological target: T2, Human GLP-1 receptor; assay: cell-based or functional assay

Molecule	EC50(pM), CRE-driven luciferase activity [1]	EC50(pM), CRE-driven luciferase activity [2]	EC50(pM), CRE-driven luciferase activity [3]	EC50(pM), CRE-driven luciferase activity [4]
MEDI0382 (peptide)	10 to 100 pM	< 10 pM	–	–
B1	–	–	< 10 pM	< 10 pM
H[Aib]QGTFTSDYSKYLDK([AEEA-AEEA-γGlu-Stearoyl])RRAQDFVQWLMNTK [Compound 15]	–	–	< 10 pM	< 10 pM
H[Aib]QGTFTSDKSKYLD[Aib]RRAQDFVQWLMNTK [Compound 39]	–	–	> 1000 pM	> 1000 pM
H[Aib]QGTFTSDK([AEEA-AEEA-γGlu-Stearoyl])SKYLDDRRAKDFVQWLMNTK (lactam 16-20) [Compound 26]	–	–	< 10 pM	< 10 pM
B2	–	–	< 10 pM	< 10 pM
B3	–	–	< 10 pM	< 10 pM
B4	–	–	> 1000 pM	–
B5	–	–	< 10 pM	< 10 pM
B6	–	–	< 10 pM	< 10 pM
B7	–	–	> 1000 pM	> 1000 pM
B8	–	–	< 10 pM	< 10 pM
B9	–	–	< 10 pM	< 10 pM
B10	–	–	< 10 pM	< 10 pM
H[Aib]QGTFTSDYSKYLD[Aib]RRAK([AEEA-AEEA-γGlu-Stearoyl])DFVQWLMNTK [Compound 16]	–	–	< 10 pM	< 10 pM
B11	–	–	–	< 10 pM
H[Aib]QGTFTSK([AEEA-AEEA-γGlu-Stearoyl])YSKYLD[Aib]RRAQDFVQWLMNTK [Compound 40]	–	–	> 1000 pM	–
B12	–	–	< 10 pM	< 10 pM
B13	–	–	> 1000 pM	–

Molecule	EC50(pM), CRE-driven luciferase activity [1]	EC50(pM), CRE-driven luciferase activity [2]	EC50(pM), CRE-driven luciferase activity [3]	EC50(pM), CRE-driven luciferase activity [4]
B14	–	–	–	< 10 pM
B15	–	–	< 10 pM	< 10 pM
B16	–	–	< 10 pM	< 10 pM
B17	–	–	< 10 pM	< 10 pM
B18	–	–	–	< 10 pM
B19	–	–	< 10 pM	< 10 pM
H[Aib]QGTFTSDK([AEEA-AEEA-γGlu-Stearoyl])SKYLDCRRACDFVQWLMNTK (linker 16-20 via 1,3‑phenyhenedimethyl) [Compound 22]	–	–	< 10 pM	< 10 pM
H[Aib]QGTFTSDK([AEEA-AEEA-γGlu-Stearoyl])SKYLDKRRADDFVQWLMNTK (lactam 16-20) [Compound 27]	–	–	< 10 pM	< 10 pM
B20	–	–	< 10 pM	< 10 pM
H[Aib]QGTFTSDK([AEEA-AEEA-γGlu-Stearoyl])SKYLDKRRAEDFVQWLMNTK (linker 16-20 via 4‑carbonylpiperidin‑1‑yl) [Compound 32]	–	–	< 10 pM	< 10 pM
B21	–	–	< 10 pM	< 10 pM
H[Aib]QGTFTSDK([AEEA-AEEA-γGlu-Stearoyl])SKYLD[Aib]RRAQDFVQWLLRAK [Compound 12]	–	–	< 10 pM	< 10 pM
H[Aib]QGTFTSDK([AEEA-AEEA-γGlu-Stearoyl])SKYLDKRRAEDFVQWLMNTK (lactam 16-20) [Compound 21]	–	–	< 10 pM	< 10 pM
H[Aib]QGTFTSDK([AEEA-AEEA-γGlu-Stearoyl])SKYLDKRRAKDFVQWLMNTK (linker 16-20 via 1,4‑phenylenebiscarbconyl) [Compound 31]	–	–	< 10 pM	< 10 pM
B22	–	–	< 10 pM	< 10 pM
H[Aib]QGTFTSDK([AEEA-AEEA-γGlu-Stearoyl])SKYLDSRRAQDFVQWLMNTK [Compound 2]	–	–	< 10 pM	< 10 pM
B23	–	–	< 10 pM	< 10 pM
B24	–	–	< 10 pM	< 10 pM
